Experimental data published in the DeepSol protein solubility set.

Test: soluble on expression in E. coli; label from the status in PepcDB or PDB records

Row | Sequence | soluble on expression in E. coli
1 | MKIMILGIDIGGANTKITEIEGDNYKIHHIYFPMWKKKDELEDLLKNYNDNVDYVALVMTAELADCYKTKKEGVEDIIDKVEKAFNCPVYVFDVNGNFLTSEEAKKNYLDVSASNWNATAKFVAEFIKDSCILVDMGSTTTDIIPIKDKEVLAEKTDLDRLMNNQLVYVGTLRTPVSFLANKIEFRGKLTNLSSEYFAITADISLILNKITEEDYTCDTPDGAGKDFESCLTRLVRVLCADREMVKDDELIDFANKLYNKLLELIRENVDTIAKRYNLNDVVITGLGEEILKDALDEYNIISIKETYGKDVSLATPSFAVAKLLQKQLDKLEHHHHHH | not soluble
2 | MGSDKIHHHHHHMCSVSGVLILNPKNFEKVELKLASILKKAEDRGRDSFGIVVIQKDGTVKVRKSIGKPSEKEELLYGILDEDSRVVIANNRAEPTTEYVRQKTEDDIQPFIGDRYIVTHNGIIANDLELEKKYELKRKTKIDSAILPLLLDKTWDGNLEALKGILEQIKGSFALVIGDKKNPDRIFLAQNFKPLYMAYDHSLESLFFTSLDEYFDAKPFDPVNITKLEPYSVVMVTSNKLITTLPIMEKRKKYRVLVVASGGLDSTVAATKLLREGHEVTLIHFNYHHKAEEKEREAVRKIAEYLQIPLLEINTDLFKIIGHATLIKGGGEIVKDRKGEEGAEFAHEWVPARNLIFFSVSLAIAEAYGYDAIASGINLEEAGAYPDNEMEFIRMLNKLSPYATGPNKRIEILMPVGNLVKHEIVKLGYEIGAPLHLTWSCYEGGQKHCGKCGPCYMRKMAFRINGLKDPVEYDEE | not soluble
3 | SNAMENQKMQEPLVYRRILLTVDEDDNTSSERAFRYATTLAHDYDVPLGICSVLESEDINIFDSLTPSKIQAKRKHVEDVVAEYVQLAEQRGVNQVEPLVYEGGDVDDVILEQVIPEFKPDLLVTGADTEFPHSKIAGAIGPRLARKAPISVIVVR | soluble
4 | MAHHHHHHMINSVYHSKKACVEALRAVERLQPSWWTPPCSEFLHRVEQTPTVTAQPNQKTLIVLEGIDGVGKSLVAQSLIEKLGDSAVLIRTPHPDLSGIRETFRAQTEETARAFYSAANYLAAWDAFHATKERKFVVFDRWWCSTCAMALANSCRLAALPAAGDAVYQWPQDLPPFQLGALLYVEEHIRQARIRQRAPEDAEERRLRAQQEMREVAMEAYRRFGLLNEVHVATYGVAVNRILALMTEKGLPHSATPFSAEELAALRQI | soluble
5 | MGSDKIHHHHHHMYTIAIDLGGTVVKIGLLSDGEIVDCVRLPSRLALGLALNLPKIKEAIDRLLAAWRIDVAALRCIGLAFPGLVDPIHNRVISTNEKYDDACSISLDKWAWENWEVPFCMDNDARLAVAGEWWQGAARGKNNVVMMTIGTGIGTGVVIDGRLLYGQHFQAGSLGGHFVLDYKGRRCSCGNKGCVEALSSSFFLPTIIREHALLSESFKRDADIYDFKRIFRLAQEGNTDALLIRNECMDIWASAIITYIHAYDPEVVILGGGILKSQEVIIPYISKRVDELAWCPSGKVPVVPAILGDDAALFGLEYFMVKQQQNERICI | not soluble
6 | MGSDKIHHHHHHMDIKNKIKSIFLPEKNDYLDDEEFEYDIENNEEDLKEDNKVHLNDLSRVKYDYRELKDIENQTEEMCLLAVKQDGTIIEFVKDKTYKVCMEAVKQTYKSLKYITNQNEDICIEAVKQNYRALYYINNKTENVLIEAIKNASTYDVMEVFKFVEEQTEDVCLAFIERASKNDVAEILKGIKEQTPAICLEAVKKDGKSLAYVKEQSNSICLEAVKENYSALSCVKEQTEEICIEAVKQNDFALYYVNEQTEKICMEAVKRSYMALQYVNKQTEEICLEAVRIDGRALQYVKEQTEEICLESVRQNGKVLQYVKKQTENICIEAVRGSFEELEIKEILSYVKIPTERIFVEAVKQNGKILKYVENQTELICLEAVRENYNALAYVKEQTEKICLEAVNQSYEALKYVKEQTEEVCLKAVKQDYRMLKYVNNQTEKICLEAVKQNYRALEFVDNQTEKVCLEAVKQNRKALQYVKQKQS | not soluble
7 | MGSDKIHHHHHHMALRIYGDSISGNCLKVKWTADRLGIAYDWIETNVLTAETRTSAFMALNPAGQVPLAVFPDGRPLAQSNAIIFHLAEGSDLIPGNAFDRAKMLEWMFWEQYSHEPYIAVARFQVLYLGKPVESLEPRLIERGADALARLETQLQRSTFLVGDKLTLADVALVAYTRVAHEGGFDLSLYPAVEAWVGRVEADLGIR | not soluble
8 | MGSDKIHHHHHHMNIETLMIKNPPILSKEDRLGSAFKKINEGGIGRIIVANEKIEGLLTTRDLLSTVESYCKDSCSQGDLYHISTTPIIDYMTPNPVTVYNTSDEFTAINIMVTRNFGSLPVVDINDKPVGIVTEREFLLLYKDLDEIFPVKVFMSTKVQTIYKEVRLDQAVKLMLRRGFRRLPVIDDDNKVVGIVTVVNAIKQLAKAVDKLDPDYFYGKVVKDVMVTNLVTIDELASVNRAAAEMIVKRIGSLLILNKDNTIRGIITERDLLIALHHILVMEKFKEKL | not soluble
9 | KIGKHTIKFPIFQGGMGVGISWDELAGNVAKEGALGVISAVGTGYYKNMRFVERIVAKKPFEALNFYSKKALNEIFANARKICGNNPLGANILYAINDYGRVLRDSCEAGANIIITGAGLPTNMPEFAKDFSDVALIPIISSAKALKILCKRWSDRYKRIPDAFIVEGPLSGGHQGFKYEDCFKEEFRLENLVPKVVEASKEWGNIPIIAAGGIWDRKDIDTMLSLGASGVQMATRFLGTKECDAKVYADLLPTLKKEDILLIKSPVGYPARAINTGVIKRIEEGNAPKIACVSNCVAPCNRGEEAKKVGYCIADGLGRSYLGNREEGLYFTGANGYRVDKIISVHELIK | not soluble
10 | MGSDKIHHHHHHMKLVKTGILPLDTQLGGGMPAGSVVSVFEEPGAGADVLSYHFTVEGATHGENVFYLATDDSSEEIREYINLYFDLDEAVWENITLLSLRASMQQEEGEKDAKDFLRKTIYDPIGGIKTILSHEEFERVVINNFTYFLANYPIEDVIALIDVLSNYAKRNQSVVMLLVTKGMFDPRTETTVKHYSDGVIELTLKEVENEVQRRLKVVKFKGILVPKAILRYELTDKGIKMESVMRVL | not soluble
11 | MLQGKAFLITGAGGALSRALIPAFHQAGARLFLSDPRPERMAERAQAVGAKTFVADLTRLEEALALARFVEEEAPLYGVVHTVGGFAAGRFLDTDPGLYDWMLDLNLRTTFNLLKAVLPYMAKRGEGFFAAFAAGPAWTGAGPGRALYTAAKTALASLLRSLQGEVEGVRFLVVYPMGTLDTEANRKAMPEADFSRWIAPELVAKVVVEAAGAKGGRLLELPIYPPL | soluble
12 | MDPFDEIVIKNYLSFPLVLQKLLSIKKLRRIEFFSQNMATHIVFDELGMTTKGFRPDKEVEKLLLKLELIDKRIERTLFRQKHFERFWATLKPLEQQLLIRRFKYKEEVNCPHRLIESVLDEIEEIETAICLMENIELEENELSDDVEENLERMCDFFAL | not soluble
13 | MTIKSDKWIRRMAQEHGMIEPFVERQVRGADDSRVISYGVSSYGYDVRCAAEFKVFTNIHSAVVDPKNFDEKSFVDINSDVCIIPPNSFALARTVEYFRIPRDVLTICLGKSTYARCGIIVNVTPLEPEWEGHVTLEFSNTTNLPAKIYANEGVAQMLFLQSDEACEVSYKDRGGKYQGQR | soluble
14 | MGSDKIHHHHHHMEFQCPLCRQRLHFHEESRGWHCDGKHHFDKKEIGYWDFYKGNKPRNAESRQELRARQFLVTSGLFQPAVEAMVKVLQTQDCGSERNCVNLGPGHAWIGKLLAQALSEHELPLKVFSPLESENEAFAAAKSGMEAVCLTPLKSLPFADASADMVWLLDIPAKGKEWQRILKPGGLLLMLAAGPRHLWQIKEFVYEGLTEKPFVLELSGQFDLISQTPVSWTHALSVADAKVLMGMAPWAWRVKEASLKAMEKGDFSGLEMDYRIILAKKRV | not soluble
15 | MSYQPPPNGQMPGYPQQQFNQQPQFQSNGFPPPAAPQKPAQVPGGFPPPHQQPNGQYQNGGLNGNSSHLAQSVNNMSIGARSTPSAQPPNPYQPAGYPGAPPQQLQQVQRQQTPQQFAAVPQSVQAPSATPAGPLQAMQQAPAPTPGIPQMNQGAHLPPQPHQIHQPTPLRPQIPGFPQAGGSPSSFQAGAPTSQNVQGYPGGPSSAPSAYPGAPQVPQAPNSFIPPGTGGFPPGQPTAGSFPPGPQVPGSYPSGPADIPQGPGMPRAFPPGASAPVAPGMPGAFPPGQGGPGMPGSFPPGAPGPGGPGMPGSFAPGAPGPGGPGGYPSGGPGMPGMQGGYPGGPPQQRQQRLDPNMMPSAVQVIDDDSSTRSGIFPTGYPNAELPPLVSTNSFAQDQGNCNPKFMRSTLYTAPQTNDILKASQIPLAVVISPFASLTEYEKEPPVVDLGPQGPIRCQRCKAYICPFMEFQDGGRSFRCPFCHARTSVEDAYFAHLDHTGRRTDIEMRPELCLGAYDLVATKQYCKNGIAPKEPAFIFMIDVSYNAISNGMLPILCQNLEKVLRNLPRESGQLESSMRIGLATFDQAVHFFDISSASPKMLVMSDVQEPFVPMVDGLLLPYNEALPGLRAALAEIPKLFSQSKTTETILQPVVQAGLDALKCADRAGKVILFSTVLPTYDAPGKLKSKNDRSLLGTDKEKNALVPQEDSYTKLGEQCVKSGVTVDLFLFPNAFIDVATIGQLSAVTGGSIFKFQYFSADKDGVRMLNELERHVSKKIAFDCMARVRTSTGIRPITFTGSFYMENSTDLELATLDESKAFITEIKHDDSLKDPASFIQTAVLYTSMTGQRRLRILNLCLPVTADYNQVYRLADPEALTAFMLKQAVQLNRDKGSSEMRESLSSRCAQFLATYREKCSEGAPLGQLILPESLKLMPLYVNSILKNDAISGGSEMTVDDKVWQMELIRGLRTENVMPLIYPRVMPISDLQINDTEEMKDLPKPVRASSEFLENSKAYIIDNGVILFVWVGSACPQTWVQDVFGVGATNQIDTESGTIPEKDNGHSRALRRAIQLLPRGIRERKTFVVVEKSGLEPWMKKFLVEDKAGPANMSYVDYLVDIHRKIRDLIS | not soluble
16 | MTPNRRSTDSYNMLGASFDFDPDFSLLSNKTHKNKNPKPPVKLLPYRHGSNTTSSDSDSYIFNSGSGSSDAETPAPVAPIFISLEDVLLNGQLIDFAIDPSGVKFLEANYPLDSEDQIRKAVFEKFTESTTLFVGLCHSRNGNFIVQKLVELATPAEQRELLRQMIDGGLLAMCKDKFACRVVQLALQKFDHSNVFQLIQELSTFDLAAMCTDQISIHVIQRVVKQLPVDMWTFFVHFLSSGDSLMAVCQDKYGCRLVQQVIDRLAENPKLPCFKFRIQLLHSLMTCIVRNCYRLSSNEFANYVIQYVIKSSGIMEMYRDTIIDKCLLRNLLSMSQDKYASHVIEGAFLFAPPALLHEMMEEIFSGYVKDVESNRDALDILLFHQYGNYVVQQMISICTAALIGKEERELPPAILLLYSGWYEKMKQRVLQHASRLERFSSGKKIIDSVMRHGVPTAAAVNAQAAPSLMELTAQFDAMFPSFLAR | not soluble
17 | SSWAIHYIGKSVEQLTGYSKMDFITRKLTWSDLICPEDIPALNKVVQKATKNRTPYQVEYRIKKADGSTVFIQEQAHPVNDDKGNLAYVDGVFLDV | not soluble
18 | MGSDKIHHHHHHMPLSIITNTFAGNPLDRDSERRGDEAFLAEKLADPESLAVALWNGKPLVEDILGEDGKPTGVQIAYLRADMAQDLAGGSEKLLYMGLWKDIAVFAVDIEGAADPAEGPLQGLGRFEELRGAAASMPPADAGILATAKSMFEWRRRHRWCSACGQKTEVSDGGWKRVCPSCEAEHFPRTDPVAIMLAIHDGKCLLGRQAMWPQGMFSALAGFIEPGETIEEACARELQEEAGLKATAVRYHSSQPWPWPSSLMMGLIAEVDSDEAAPDQTELEEVRWFTREEALQLIRGELDGLFAPPPLAIAHQLIKAWAEEA | not soluble
